Results on 47 sequences are retold here after the NTF2 design screens of Basanta et al. (2020).

The nature of this series: protease stability score; higher = more stable; yeast display proteolysis, trypsin and chymotrypsin.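 Also: relative to predicted unfolded state with 0 unfolded-like and 1 meaning tenfold more protease.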
“DEHTEHSKKLADLIMEWLKTGNEEILRKRMDPNTKIHIEVDGREENTHGWEEFERWLKELGIKHFELKHVHIQGDKSFVDGTLEVNGQRRRIIFIFIVVDGRIQSIRVIVI” returned a protease stability score of 2.12. To “DEHTHEAHKFLREYWSNLQTGDEEKIINLVDPRVRMIINGKELHGREEFSKALHDEYRRMGMTIQTFTLQHLEIQGEKVHADVEIITHYDGRHTSIHLHLIVQKINGRWLMREVEIR” belongs 1.32; to “DEHTHEIEHMLRHFLETLETGDEERYDRLADPHTRIDIGDKHLHGREKAQKLWRHWWKRFDHIHHLHIHHLEAVDGVNHVELREDIRVDGRRVIIRSLLILVVIDGRLREVRVEER”, 0.496; to “DEHTKEMKHFLKEWLHNFFTGNEERWAHLADPHVRSDINGVELHGWDLLFRKMRKHREDLGAPHIRDFHIHSMHVINGVIHIDGEIDVDVNGVRIRSRVEIHLNVVNGRNKSEHYHHI”, 0.68. To “DEHTKFLEKLLRDWMESVLTGDEHLIKRYADPNVRLDFNGQQFHGRDSMVHLLKEWRIKHFKLDSFFAIDGVTFVDGESRGEVNGQETENRLHVEIFVVNGKVTHVKIRIL” belongs 1.68; to “DEHTKLLEDLVKILLFIRKTGDEDTFNKLFDPNVRLVQGDKTYHGRETFNKTMREWRIHHFEIKRSHFIGEWAEIDGHEDGDINGQKIRTDVEIILIIIDGRIKSIEYRPL”, 0.929.

Take “DEHTRLMDRVSKELMHYRRTGDEHSLDHLLDPHVRLDQGDWEKHGMEEYIEFVRRVKNVKLRIHDITVDIVNGVVIVFIDGILHVNGVDITTRIHIYFRKVNGVWLVESLRYEVG”: the protease stability score came out at 0.373. To “DEHTSRLERLAHLFFESWITGDFDALLKYLDPNVRIEQGDKHIHGREVMFEHLERLLKHWWFHEHRLRDVKSVNGVSHLHVHQRNEINGVELRYDFHIHLYIVDGRLKSMEFRIS” belongs 1.07; to “DEIDEAIIEFFRLMLEWNETGDEEYIDTLIDPHTQLKIIYGDKDREFIGREEYFKIVLEWRIKEVRIHSIHTQGNKLNIDGEINGNIDGRDTKTRINIHFIVVNGRLKTITLRFE”, 2.43. “DEIDEISKQMVRDFVHSWRTGDWKVLRELADPHALIIFNGREFHGWEHILRVFLELIRRYKNARVDIEEVIVQGDKIHIHLRIDQGDKSHTVNIHIDIIDGKLKRLEIDVT” came in with a protease stability score of 2.27.

Turning to “DEIDELMEMMARILIRLWQTGDEETWSRLADPDVRVTIGEFHTHGMERALLIIQEIRRHWRIHHIHIHDMRVFENRSRVNGKVDGEIDGQKDVRETRIEVVLIDGRLQEVRVKTK”, the protease stability score amounted to 0.91. To “DEIDERLHFLMKRVLHLWETGDWDMWMNYADPHVRHEIIIGDKRYSLHGREEYAEELLRHHRHIRLHTIHITHIDVVNGRVELNGRVNGDINGQHVDVELYVELKVVDGRIESERMEFR” belongs 0.412; to “DEIDHRAREVAERILKSMLTGDFDTLRELMDPHVRVILSVNGRENHTVGREWFAHVVKEWIDRVDVHQIDVERVELQGEKVHMDTNLRIHYGDKSITRKTEIIIDVVDGRVHYVRFIIR”, 2.52; to “DEIDNELKTALRRLLHTWMTGDEDSLERLADPNVRFHQGDKDMHGREHMVKWFKEMIDRFPNLRIHDFIISEVRFFDGKAELIGTVLRTYGDKTDEVDFTIISTKIDGQWRIHEIRIN”, 1.26. For “DEIEDELRTVYELTVKALTTGNEDLLRNYLDPDTRFIIDGRDLHGMDEINELWREWRIHIHDTKIHSIRTQGNFADVHGRLHGTFIFNGKIEHTTREVRLIFVKVNGRWVINSVVIR”, the protease stability score turned out to be 1.63. For “DEIEDHMREVREQLLRDLTTGDWKKMREMLDPHVRIHIGDFHDHGRESAEEWLRKFKGLTLRIHDVRVKIIDGRALVENDGELTYDGRRHRVRIHVYVTKVDGVWMVETLEIRIH” the value was 1.15; for “DEIEEDMRKSIEDVIKAHLTGDEKTYRRLFDPHVRIDIDGVDFHGWEESRRMLQEIRISIEDWKIERMEIQGDKIHIDSRVDLTVYIDGKKERDTIERHIILVKFDGRWTIESVDFR”, 1.37; for “DEIEEEAKEMTKRILEDIKTGDEDSIFKLMDPNVKLVVGEKIHIGRETASKFFRKHWEDLGITRVESHLRTTHLIDGRVHVHSETNWNGVRIEVIIEIEKVNGRWVIREIHIHMH”, 1.29.

In turn, “DEIEEEVRKFAEIHSRDLMTGNFESFREQADPHVRVIINGREFHGWHFLFHWLQEMRIHRVRIEDVRVYGDKAILDTRVESHVDGRTFDLEFKLVLSKVDGRWRVHQIILR” registered a protease stability score of 1.11. The sequence “DEIEEIAREIAKELHHLILTGDEDRLNELMDPNVKFESIVNGRRIESIGRENVKEVLRRLLEKLGLDRFSFIRRDIKYFDGVIHIFGQLEIDGVRHETEIIIFIVNGKVKSIRIRIQ” had a protease stability score of 1.14. To “DEIEEKIETHIKILLHASRTGDWELNSHNADPHTRIDIDGVELHGMEHFFTIMKEMRMKEYTLHHIEVQGEKIRIRGELRGEWDGKEEVVDVILIIVKIDGKWLIKEVRFR” belongs 1.07. “DEIEELSNRLLELLRHFLQTGDEDMLRKLMDPHVRIDIDGQDFHGRESAVKLLRFWIDHMRWKDRRLRHVRIQGNFIEIDTIEHGEINGREHDLTTHIIASKVNGRWVLHSILFR” gave a protease stability score of 1.81. To “DEIEEQSRRALHEYINKILTGDEKSLTDLMDPDARLIVGDKEVHGRKLVHEWMSQWTEHIRIKHVHLHDIEIIGEKVHLDMRLHGIINGKETEHKVELHMYKINGKWIIHTVKIL” belongs 2.04; to “DEIEERTKELMKIDLELLETGDEETLLHLLDPHVKIITWINGRRVQRVGRHIWVHWLRYLGIDHLHVDDVEVQGDKITFDMTIEINGRTHKAVLRSQVVDGKITSLEIEVR”, 1.63.

Turning to “DEIEETIKHLMEEWETSMQTGDEDRIKELLDPHARLEIGEWEFIGRERVAHFLSRADHSEYRIRRIRMIGDKIDIRLEVRLHVNGREIRTETHLIILKINGRWFFKSTHIT”, the protease stability score was 1.62. In turn, “DEIEEVFREYTERIVDMWKTGDEELTNRNMDPNARMRIDVNGRDLELHGRERWIEHFRELGIKYEEIRDVRLRLVGDKANLEIDGEVDVNGQKHHTSLIIHVEKINGKWVISRIIFFIR” returned a protease stability score of 1.2. To “DEIEHAVRLAYERWLHEFETGDEEETLRNADPDTMIVINGRHLHGREHFTRWLKRIDHQHMHHEDFTHIDHQGDKLHLNVHVSIEVEINGVRYVLEHENEIVQTKIDGQWILTYIIIR” belongs 1.25. To “DEIEHESEEILRMWLHAIKTGDEEFLKQYIDPHAKLDINGVEFHGREHIVRFIVELRMHDHRVQDSRKVGNKVILHTRVDSIIGDKRIDTHVTIIVRKIDGKWRLEEYRVS” belongs 2.55. To “DEIEHEVERVVREWMRAYITGDEDTLQHLLDPHVLSVIDGVNIHGMENVTEYLRRHLEKIKNVQIEDMRIHRLDIQGNKLDLDTRLHITFNGVPEVLETRLILTKIDGKWWMHQVIIN” belongs 2.42. For the sequence “DEIEHHDRIIHHLTLHAFFTGDESITEHLADPDVRLDIVQGDKFNHVIGREMVVQWLEEWWRRVKNARFRVHRVEVINGQVNLRVEVDINGKRVDFTLIIIVIDGKIRSQEVIFH”, the protease stability score worked out at 1.67.

Turning to “DEIEHLIRRIMEEIVHVFETGDEEKLEELMDPNTIFIIGDKRYVGREAVDVLLRRADVMTRFHIKSMRTVGDKIDLNTSIHVHFDGVHREIDTHVIARKVDGRWHWDSVRVE”, the protease stability score amounted to 1.2. In turn, “DEIEHLVHWAVEVYRHVLETGNESDLFRLFDPHVKLDVNGKEIVGREDVIEFISREIKQFDHVKLRIHRIDFQGDFVEVEGRLIVRQGDKEIRHDVRIYAEKIDGQWNVKSLSFR” registered a protease stability score of 2.48. With “DEIEHMIHEIFERWIKAWLTGDWRTIEKLFDPDVRVEINGVEIIGRELMSKVLIRKYDEMRSRVKLESEHAQGDKAHFNVNIILHIGDKTIERRSRIHIRIYNGRIHEVRVEED”, the protease stability score worked out at 2.4. To “DEIEKELTDVFWEWLHLHITGDEDRLRDLMDPDVRLIYGDKTAVGREEFEKMWRELRHRFDHIRNVQIHDKRIVGNKLEMDFNFDHEVNGRREHTRVKIVLITINGKLHAFRIEVE” belongs 1.4; to “DEIEKEMLKRARDILENWVTGDEDEFNRLADPNVRFELVYGDKSHSHHGMENLKKWLEEWTKRVDHFDLKIKSQRVVGDKAETETKLILNYDGRRFEHDTRIDVVVVNGRIKQIRVEIR”, 1.59; to “DEIEKESERVMEKYFEDFITGDWETMWRQVDPHVKFRIGDKHFHGREQATRVYKEFLDELGVKVRRIHDFEFTLFDGRAYVHLDSTLRVNGRDHRLHITIIVEKINGRWRLHEFELRLH”, 0.367.

In the case of “DEIEKHHRELIELLFHWWHTGDFDSFHRFADPDVKLDFNGVEIHGRERANEFMTRLKEEIRIDDVKLERVQVIDGRMIIHGRRDGNVNGQKEDREVELYVIAINGRIKSVEIRIR”, the protease stability score was 1.71. Take “DEIEKSVKHHDQVFRTAIETGDEHELEHLADPNVRWDINGVDLHGRELYLKIVLEIRMRIELRVRDVRWQGNYIIVISEVDSHHHINGVETRDRSDAHLIIFKVNGRWELKESRRH”: the protease stability score turned out to be 1.35. To “DEIEKVLEISYRLMHESWRTGDEDHLRDLIDPHARVIIDGRTYHGRDAMHLFVDELLREFGITQVDIEMKRIHVQGDKVESHHDINFNGQRVEVDISFHKVNGRWIAESVTWR” belongs 1.24. To “DEIENLIVKLAMDFIKDEITGDEERLRHLADPHTRHHIGDKHFHGMELIMKHWKTMADRFDHLEVRLEHVRVQGDKVDVHGHIIEEYNGKRIEHHIRLNVEIVDGRVTRYHVKID” belongs 1.32; to “DEIEQIMEYLAHVHIEFIITGDEDTLEHLADPHVKIEVNGQSLVGWKHWSRFLKKLGWKRDMRVRHIHAQGDKIHVDGHLVNDFDGREFRYKTHLEIKVVDGKLKVIRIDQE”, 1.41; to “DEIEREAKHVVHLLIHALLTGDERLFEELVDPDARLVINGRHYHGREEVNLAMKEWRLHRFEIKDFQYEWQGNKIISRIHTREDGHVDGQRVETRSELVIFLVKINGRWRMEFVEFRFS”, 2.42.

“DEIERESRKFFELWVHWYRTGNFEEIHKNLDPNARIEINGREIHGREDVLRLLEEIAKQFDHIEVELKDMHVQGDKMTIEGIIIFHFNGKRVEIHMIHIVLKINGQWFEHSQEYN” came in with a protease stability score of 0.626. “DEIERKVIEFWHLLRHALITGDEDLIEDLFDPHVRTDIGDKEHHGREEFRRLWREHGIRIKDVHIEHVTIIGNKVDMEVRFHLEINGRETHKRVILVAQKIDGRWRIREYHVK”: the protease stability score is 1.88. For “DEIERLFRELVNLIFELLRTGNFRKLEELLDPHTRLTIGDKYYHGRESVIEYLKHLWEQLGVDHMEFHVKRVDIQGEKVNADTEIRIKIGDKTYFRDTVLIFLKIDGRWEIRAWEEK” the value was 1.52. To “DEIERLLKEVMRIFYENFQTGDEESLKELADPNVRYQIGDKSDHGREHLWRVQHEVHRRMGIKHTHLLIKSVEIVDGVAVIHGSLRLDFDGRHIEWHLHLRLKLIDGKIKEVEHELV” belongs 1.36; to “DEIERRAREFFELWMQTVRTGDEHASSELLDPHVRIEQGDKSFHGRETYNEILHHLHRHMWFEIYLDSIEIQGDKIHARVNFVYIIGDKESWIDVHIHIDVINGRMKRLEIRDH”, 0.511.
